Results on four molecules are retold here after patent EP4763868A1, “RECOMBINANT PTH FUSION PROTEIN, CONSTRUCTION METHOD THEREFOR, AND APPLICATION THEREOF” (KANGZHONG (GUANGDONG) INC., priority 2024, dated 2025).

One data set deals with T1, PTHR1 on UMR-106 cells (UniProt P25961 27-591, limits assumed).
T1 sequence (looked up): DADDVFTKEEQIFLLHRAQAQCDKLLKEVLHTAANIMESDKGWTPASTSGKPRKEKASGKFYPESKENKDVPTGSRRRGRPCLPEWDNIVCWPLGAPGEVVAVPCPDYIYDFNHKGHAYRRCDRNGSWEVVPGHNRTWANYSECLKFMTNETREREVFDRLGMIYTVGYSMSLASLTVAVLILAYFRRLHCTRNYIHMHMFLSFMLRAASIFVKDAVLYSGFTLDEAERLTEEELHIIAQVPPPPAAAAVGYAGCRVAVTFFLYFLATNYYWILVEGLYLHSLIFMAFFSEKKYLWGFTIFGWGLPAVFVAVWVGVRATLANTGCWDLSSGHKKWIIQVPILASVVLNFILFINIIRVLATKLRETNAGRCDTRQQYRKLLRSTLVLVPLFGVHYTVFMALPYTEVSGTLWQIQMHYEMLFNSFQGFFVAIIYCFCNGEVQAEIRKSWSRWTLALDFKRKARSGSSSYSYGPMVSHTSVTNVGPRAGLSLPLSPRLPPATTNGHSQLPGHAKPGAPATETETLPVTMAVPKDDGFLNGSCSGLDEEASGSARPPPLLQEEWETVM
As to the kind of experiment: cell-based or functional assay.

For data set [1] the following is noted: cited from earlier work.

Consider “triple-ECD-binding fusion protein T002G-K”, for which, in the data set with PTHR1 on UMR-106 cells, the EC50, biological activity (pGL4.29 reporter, fluorescence intensity) worked out at 61.4 pM.

Turning to “Transcon PTH(1-34): polyethylene glycol (PEG)-conjugated prodrug of PTH(1-34) by Ascendis Pharma A/S”, the “time for which serum calcium is maintained at normal physiological levels” value in data set [1] (patients, after administration) was no more than 24 hours.

Regarding `CC[C@H](C)[C@H](NC(=O)[C@H](CCC(=O)O)NC(=O)[C@H](CO)NC(=O)[C@@H](NC(=O)[C@@H](N)CO)C(C)C)C(=O)N[C@@H](CCC(N)=O)C(=O)N[C@@H](CC(C)C)C(=O)N[C@@H](CCSC)C(=O)N[C@@H](Cc1cnc[nH]1)C(=O)N[C@@H](CC(N)=O)C(=O)N[C@@H](CC(C)C)C(=O)NCC(=O)N[C@@H](CCCCN)C(=O)N[C@@H](Cc1cnc[nH]1)C(=O)N[C@@H](CC(C)C)C(=O)N[C@@H](CC(N)=O)C(=O)N[C@@H](CO)C(=O)N[C@@H](CCSC)C(=O)N[C@@H](CCC(=O)O)C(=O)N[C@@H](CCCN=C(N)N)C(=O)N[C@H](C(=O)N[C@@H](CCC(=O)O)C(=O)N[C@@H](Cc1c[nH]c2ccccc12)C(=O)N[C@@H](CC(C)C)C(=O)N[C@@H](CCCN=C(N)N)C(=O)N[C@@H](CCCCN)C(=O)N[C@@H](CCCCN)C(=O)N[C@@H](CC(C)C)C(=O)N[C@@H](CCC(N)=O)C(=O)N[C@@H](CC(=O)O)C(=O)N[C@H](C(=O)N[C@@H](Cc1cnc[nH]1)C(=O)N[C@@H](CC(N)=O)C(=O)N[C@@H](Cc1ccccc1)C(=O)O)C(C)C)C(C)C` [TP(PTH(1-34)), teriparatide], the half-life in data set [1] (human, in vivo) was 30 min.

B1: human serum albumin nanobody NbHSA (VHH)
VHH: QVQLVESGGGLVQTGGSLRLSCAASGSTLVGHSVGFFRQAPGKEREPVVCISSTETVMYYTNSVKGRFTISRDNAKNTVWLQMDRLAPEDTAVYYCAARPQLCSALDYRYNSWGPGTQVTVSS
For the molecule B1, the “EC50, biological activity (pGL4.29 reporter, fluorescence intensity)” value with PTHR1 on UMR-106 cells amounted to 0 pM.
